Source: article PMC9475542 (2022)

Biological target: DNMT1 (Homo sapiens, UniProt P26358)
Test: ELISA

Sequence of DNMT1 (P26358 whole entry): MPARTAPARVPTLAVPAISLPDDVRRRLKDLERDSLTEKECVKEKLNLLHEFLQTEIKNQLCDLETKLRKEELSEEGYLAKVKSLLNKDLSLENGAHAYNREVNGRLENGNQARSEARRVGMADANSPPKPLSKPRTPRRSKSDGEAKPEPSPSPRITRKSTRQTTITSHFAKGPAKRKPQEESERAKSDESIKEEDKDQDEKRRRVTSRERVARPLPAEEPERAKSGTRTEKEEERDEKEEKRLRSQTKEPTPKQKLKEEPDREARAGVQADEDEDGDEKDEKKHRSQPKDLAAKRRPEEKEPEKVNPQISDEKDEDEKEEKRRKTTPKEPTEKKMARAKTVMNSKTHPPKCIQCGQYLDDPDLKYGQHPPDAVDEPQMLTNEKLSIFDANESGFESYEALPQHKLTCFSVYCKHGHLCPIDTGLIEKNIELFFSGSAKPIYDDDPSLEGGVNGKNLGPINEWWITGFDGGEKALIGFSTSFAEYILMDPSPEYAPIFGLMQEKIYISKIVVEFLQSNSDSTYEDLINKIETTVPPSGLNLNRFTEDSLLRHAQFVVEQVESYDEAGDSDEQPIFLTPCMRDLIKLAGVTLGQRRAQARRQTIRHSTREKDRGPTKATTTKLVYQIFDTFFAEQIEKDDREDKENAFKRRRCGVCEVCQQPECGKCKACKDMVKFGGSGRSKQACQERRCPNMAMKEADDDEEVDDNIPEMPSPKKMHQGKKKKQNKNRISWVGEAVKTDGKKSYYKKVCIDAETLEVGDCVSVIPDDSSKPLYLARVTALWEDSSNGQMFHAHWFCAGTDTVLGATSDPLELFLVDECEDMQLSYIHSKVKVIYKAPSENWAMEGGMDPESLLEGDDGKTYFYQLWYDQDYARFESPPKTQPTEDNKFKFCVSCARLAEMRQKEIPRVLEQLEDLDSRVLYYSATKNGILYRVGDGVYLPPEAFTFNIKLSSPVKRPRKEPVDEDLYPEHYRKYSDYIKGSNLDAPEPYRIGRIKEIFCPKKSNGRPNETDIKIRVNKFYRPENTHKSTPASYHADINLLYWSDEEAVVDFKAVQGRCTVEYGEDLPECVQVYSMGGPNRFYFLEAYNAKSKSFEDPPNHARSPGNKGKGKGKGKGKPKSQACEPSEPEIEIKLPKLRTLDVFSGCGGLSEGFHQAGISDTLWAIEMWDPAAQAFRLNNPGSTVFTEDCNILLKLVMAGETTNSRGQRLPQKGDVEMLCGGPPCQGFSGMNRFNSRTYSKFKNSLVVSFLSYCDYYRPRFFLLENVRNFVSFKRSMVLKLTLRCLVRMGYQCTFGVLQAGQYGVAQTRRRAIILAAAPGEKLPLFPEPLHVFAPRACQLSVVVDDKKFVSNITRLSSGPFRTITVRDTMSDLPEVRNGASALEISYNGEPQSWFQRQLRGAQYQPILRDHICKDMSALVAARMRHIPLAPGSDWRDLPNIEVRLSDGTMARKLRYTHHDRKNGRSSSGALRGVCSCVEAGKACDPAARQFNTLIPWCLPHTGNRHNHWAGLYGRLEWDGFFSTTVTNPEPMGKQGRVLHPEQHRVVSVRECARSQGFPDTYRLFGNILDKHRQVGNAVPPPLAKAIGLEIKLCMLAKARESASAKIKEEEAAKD

B1: CD133 (protein)
chain: GGQPSSTDAPKAWNYELPATNYETQDSHKAGPIGILFELVHIFLYVVQPRDFPEDTLRKFLQKAYESKIDYDKPETVILGLKIVYYEAGIILCCVLGLLFIILMPLVGYFFCMCRCCNKCGGEMHQRQKENGPFLRKCFAISLLVICIIISIGIFYGFVANHQVRTRIKRSRKLADSNFKDLRTLLNETPEQIKYILAQYNTTKDKAFTDLNSINSVLGGGILDRLRPNIIPVLDEIKSMATAIKETKEALENMNSTLKSLHQQSTQLSSSLTSVKTSLRSSLNDPLCLVHPSSETCNSIRLSLSQLNSNPELRQLPPVDAELDNVNNVLRTDLDGLVQQGYQSLNDIPDRVQRQTTTVVAGIKRVLNSIGSDIDNVTQRLPIQDILSAFSVYVNNTESYIHRNLPTLEEYDSYWWLGGLVICSLLTLIVIFYYLGLLCGVCGYDRHATPTTRGCVSNTGGVFLMVGVGLSFLFCWILMIIVVLTFVFGANVEKLICEPYTSKELFRVLDTPYLLNEDWEYYLSGKLFNKSKMKLTFEQVYSDCKKNRGTYGTLHLQNSFNISEHLNINEHTGSISSELESLKVNLNIFLLGAAGRKNLQDFAACGIDRMNYDSYLAQTGKSPAGVNLLSFAYDLEAKANSLPPGNLRNSLKRDAQTIKTIHQQRVLPIEQSLSTLYQSVKILQRTGNGLLERVTRILASLDFAQNFITNNTSSVIIEETKKYGRTIIGYFEHYLQWIEFSISEKVASCKPVATALDTAVDVFLCSYIIDPLNLFWFGIGKATVFLLPALIFAVKLAKYYRRMDSEDVYDDVETIPMKNMENGNNGYHKDHVYGIHNPVMTSPSQH
Kd: ~150 nM
